In patent US20210040201A1 (Innovent, published 2021):
Where two headings read alike, the source gives them in different places.

Legend:
[1] = target: T1, Human TIGIT expressed on the surface of cells (human, UniProt Q495A1 22-244); assay: cell-based or functional assay
T1 sequence: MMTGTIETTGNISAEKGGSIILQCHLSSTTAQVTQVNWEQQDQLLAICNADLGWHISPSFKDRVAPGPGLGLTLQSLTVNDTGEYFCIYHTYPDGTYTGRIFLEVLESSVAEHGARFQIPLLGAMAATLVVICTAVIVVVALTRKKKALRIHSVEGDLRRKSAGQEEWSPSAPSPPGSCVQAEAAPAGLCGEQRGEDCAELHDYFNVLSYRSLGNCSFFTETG

[2] = target: T1, Human TIGIT expressed on the surface of …; assay: cell-based or functional assay; remark: listed apart in the source
[3] = target: T2, Mouse TIGIT-his (ACRO, TIT-M52E6) (mouse, UniProt P86176 26-143, limits assumed); assay: BLI (ForteBio), CHO-expressed antibody loaded on AHQ sensor
T2 construct: Bought protein
T2 sequence (looked up): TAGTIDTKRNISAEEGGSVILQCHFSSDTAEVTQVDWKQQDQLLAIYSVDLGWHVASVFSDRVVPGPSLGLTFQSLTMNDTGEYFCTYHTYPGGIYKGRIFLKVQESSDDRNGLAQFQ
Description: The sensor with loaded antibodies was exposed to 100 nM TIGIT-his antigens until to a plateau, and then transferred to an assay buffer for dissociation for at least 2 min to measure the dissociation rate. Kinetic analysis was performed using a 1:1 binding model.

[4] = target: T1, Human TIGIT expressed on the surface of …; assay: flow cytometry competition against 50 nM human CD155-mouse IgG2a Fc on CHOS cells expressing human TIGIT; positive control
[5] = target: T1, Human TIGIT expressed on the surface of …; assay: flow cytometry on CHO cells overexpressing human TIGIT; reference antibody in the run with CHO-expressed antibodies
[6] = target: T1, Human TIGIT expressed on the surface of …; assay: flow cytometry competition against 50 nM human CD155-mouse IgG2a Fc on CHOS cells expressing human TIGIT; positive control; remark: listed apart in the source
[7] = target: T1, Human TIGIT expressed on the surface of …; assay: flow cytometry on CHOS cells expressing human TIGIT; reference antibody

Binder | EC50, MOA-based assay (luciferase reporter under IL2 promoter), yeast-expressed antibody [1] | EC50, MOA-based assay (luciferase reporter under IL2 promoter), CHO-expressed antibody [2] | also measured
ADI-30272 (antibody, human IgG4 S228P, kappa, F234A L235A, V domains shown) VH: QVQLVQSGAEVKKPGASVKVSCKASGYTFTEYYMHWVRQAPGQGLEWMGIISPSAGSTSYAQKFQGRVTMTRDTSTSTVYMELSSLRSEDTAVYYCARDHDIAAAGRLADYWGQGTLVTVSS VL: DIQMTQSPSSVSASVGDRVTITCRASQGISSWLAWYQQKPGKAPKLLISAASSLQSGVPSRFSGSGSGTDFTLTISSLQPEDFATYYCQQAVILPITFGGGTKVEIKR | 1.49 nM |  | 
ADI-30278 (antibody, human IgG4 S228P, kappa, F234A L235A, V domains shown, Intact antibody, expressed in yeast and also in CHO cells (the assay field says which)) VH: QVQLVQSGAEVKKPGASVKVSCKASGYTFTEYYMHWVRQAPGQGLEWMGIISPSAGSTKYAQKFQGRVTMTRDTSTSTVYMELSSLRSEDTAVYYCARDHDIRLAGRLADYWGQGTLVTVSS VL: DIQMTQSPSSVSASVGDRVTITCRASQGISSWLAWYQQKPGKAPKLLISAASSLQSGVPSRFSGSGSGTDFTLTISSLQPEDFATYYCQQAVILPITFGGGTKVEIKR | 0.523 nM | 0.186 nM | binding result [3]: no binding (tested: 100 nM TIGIT-his)
ADI-27297 (antibody, human IgG4 S228P, kappa, F234A L235A, V domains shown) VH: QVQLVQSGAEVKKPGASVKVSCKASGYTFTSYYMHWVRQAPGQGLEWMGIINPSGGSTSYAQKFQGRVTMTRDTSTSTVYMELSSLRSEDTAVYYCARDHDIAAAGRLADYWGQGTLVTVSS VL: DIQMTQSPSSVSASVGDRVTITCRASQGISSWLAWYQQKPGKAPKLLISAASSLQSGVPSRFSGSGSGTDFTLTISSLQPEDFATYYCQQAVILPITFGGGTKVEIKR | ~25100 nM |  | 
ADI-30293 (antibody, human IgG4 S228P, kappa, F234A L235A, V domains shown) VH: EVQLVESGGGLVQPGGSLRLSCAASGFTFSSYSMNWVRQAPGKGLEWVSYISSSGTINYADSVKGRFTISRDNAKNSLYLQMNSLRAEDTAVYYCARHRIADSPSRAFDIWGQGTMVTVSS VL: not shown | 1.56 nM | 1.62 nM | 
ADI-30296 (antibody, human IgG4 S228P, kappa, F234A L235A, V domains shown) VH: EVQLVESGGGLVQPGGSLRLSCAASGFTIGGYSMNWVRQAPGKGLEWVSYISSSSTIHYADSVKGRFTISRDNAKNSLYLQMNSLRAEDTAVYYCARHRIGRSPSRAFDIWGQGTMVTVSS VL: not shown | 1.09 nM |  | 
ADI-30286 (antibody, human IgG4 S228P, kappa, F234A L235A, V domains shown) VH: EVQLLESGGGLVQPGGSLRLSCAASGFTFGPYGMSWVRQAPGKGLEWVSAISGSGASTWYADSVKGRFTISRDNSKNTLYLQMNSLRAEDTAVYYCAKDPGTHYSGYYYIWRYWGQGTLVTVSS VL: EIVMTQSPATLSVSPGERATLSCRASQSVSSNLAWYQQKPGQAPRLLIYSASTRATGIPARFSGSGSGTEFTLTISSLQSEDFAVYYCQQYVPHPPFTFGGGTKVEIKR |  | 0.396 nM | 
ADI-30288 (antibody, human IgG4 S228P, kappa, F234A L235A, V domains shown) VH: EVQLLESGGGLVQPGGSLRLSCAASGFTFGPYGMSWVRQAPGKGLEWVSAISGSGASTWHADSVKGRFTISRDNSKNTLYLQMNSLRAEDTAVYYCAKDPGTDSTGYYYIWRYWGQGTLVTVSS VL: EIVMTQSPATLSVSPGERATLSCRASQSVSSNLAWYQQKPGQAPRLLIYSASTRATGIPARFSGSGSGTEFTLTISSLQSEDFAVYYCQQYVPHPPFTFGGGTKVEIKR |  | 0.384 nM | 
ADI-27243 (antibody, human IgG4 S228P, kappa, F234A L235A, V domains shown) VH: QLQLQESGPGLVKPSETLSLTCTVSGGSISSSRYYWGWIRQPPGKGLEWIGSIYYSGSTYYNPSLKSRVTISVDTSKNQFSLKLSSVTAADTAVYYCARDGLYHTPEYFQHWGQGTLVTVSS VL: EIVLTQSPATLSLSPGERATLSCRASQSVSSYLAWYQQKPGQAPRLLIYDASNRATGIPARFSGSGSGTDFTLTISSLEPEDFAVYYCQQRFAFPYTFGGGTKVEIKR | 297 nM |  | 
ADI-30302 (antibody, human IgG4 S228P, kappa, F234A L235A, V domains shown) VH: QLQLQESGPGLVKPSETLSLTCTVSGGSIGSSQYYWGWIRQPPGKGLEWIGSIYRSGGTYYNPSLKSRVTISVDTSKNQFSLKLSSVTAADTAVYYCARDGLYHTPEYFQHWGQGTLVTVSS VL: EIVLTQSPATLSLSPGERATLSCRASQSVSSYLAWYQQKPGQAPRLLIYDASNRATGIPARFSGSGSGTDFTLTISSLEPEDFAVYYCQQRFAFPYTFGGGTKVEIKR | 0.983 nM |  | 
ADI-30336 (antibody, human IgG4 S228P, kappa, F234A L235A, V domains shown, Intact antibody, expressed in yeast and also in CHO cells (the assay field says which)) VH: QLQLQESGPGLVKPSETLSLTCTVSGGSISSSRYYWGWIRQPPGKGLEWIGSIYYSGSTYYNPSLKSRVTISVDTSKNQFSLKLSSVTAADTAVYYCARDGLYHTPEYFQHWGQGTLVTVSS VL: EIVLTQSPATLSLSPGERATLSCRASQSVSSYLAWYQQKPGQAPRLLIYDASNRATGIPARFSGSGSGTDFTLTISSLEPEDFAVYYCQQRFAHPYTFGGGTKVEIKR | 3.33 nM | 1.27 nM | binding result [3]: no binding (tested: 100 nM TIGIT-his)
ADI-27238 (antibody, human IgG4 S228P, kappa, F234A L235A, V domains shown) VH: QVQLVQSGAEVKKPGASVKVSCKASGYTFTSYYMSWVRQAPGQGLEWMGIINPSGGSTSYAQKFQGRVTMTRDTSTSTVYMELSSLRSEDTAVYYCARARYPSSWPYGMDVWGQGTTVTVSS VL: DIQMTQSPSSLSASVGDRVTITCRASQSINSYLNWYQQKPGKAPKLLIYAASSLQSGVPSRFSGSGSGTDFTLTISSLQPEDFATYYCQQSLLTPFTFGGGTKVEIKR | 68.7 nM |  | 
ADI-30267 (antibody, human IgG4 S228P, kappa, F234A L235A, V domains shown) VH: QVQLVQSGAEVKKPGASVKVSCKASGYTFRSYYMSWVRQAPGQGLEWMGIIDPSGGRTSFAQKFQGRVTMTRDTSTSTVYMELSSLRSEDTAVYYCARARYPESWPYGMDVWGQGTTVTVSS VL: DIQMTQSPSSLSASVGDRVTITCRASQSINSYLNWYQQKPGKAPKLLIYAASSLQSGVPSRFSGSGSGTDFTLTISSLQPEDFATYYCQQSLLTPFTFGGGTKVEIKR | 2.06 nM |  | 
ADI-30268 (antibody, human IgG4 S228P, kappa, F234A L235A, V domains shown) VH: QVQLVQSGAEVKKPGASVKVSCKASGYTFGSYYMGWVRQAPGQGLEWMGIIDPSGGRTSYARKFQGRVTMTRDTSTSTVYMELSSLRSEDTAVYYCARARTPSSWPYGMDVWGQGTTVTVSS VL: DIQMTQSPSSLSASVGDRVTITCRASQSINSYLNWYQQKPGKAPKLLIYAASSLQSGVPSRFSGSGSGTDFTLTISSLQPEDFATYYCQQSLLTPFTFGGGTKVEIKR | 1.22 nM | 0.506 nM | 
ADI-30306 (antibody, human IgG4 S228P, kappa, F234A L235A, V domains shown, Intact antibody, expressed in yeast and also in CHO cells (the assay field says which)) VH: QLQLQESGPGLVKPSETLSLTCTVSGGSISSSLYYWGWIRQPPGKGLEWIGSIYYSGSTFYNPSFKSRVTISVDTSKNQFSLKLSSVTAADTAVYYCAREAGRGTTGLLFDYWGQGTLVTVSS VL: DIQMTQSPSTLSASVGDRVTITCRASQSISSWLAWYQQKPGKAPKLLIYKASSLESGVPSRFSGSGSGTEFTLTISSLQPDDFATYYCQQYGILPRTFGGGTKVEIKR |  |  | binding result [3]: no binding (tested: 100 nM TIGIT-his)
ADI-30311 (antibody, human IgG4 S228P, kappa, F234A L235A, V domains shown) VH: QLQLQESGPGLVKPSETLSLTCTVSGGSIASSVYYWGWIRQPPGKGLEWIGSIYYSGSTWYNPSLKSRVTISVDTSKNQFSLKLSSVTAADTAVYYCAREAGRTGTGLLFDYWGQGTLVTVSS VL: DIQMTQSPSTLSASVGDRVTITCRASQSISSWLAWYQQKPGKAPKLLIYKASSLESGVPSRFSGSGSGTEFTLTISSLQPDDFATYYCQQYGILPRTFGGGTKVEIKR | 1.82 nM |  | 
10A7 (anti-human TIGIT reference antibody from Genentech) (antibody, V domains shown) VH: EVQLVESGGGLTQPGKSLKLSCEASGFTFSSFTMHWVRQSPGKGLEWVAFIRSGSGIVFYADAVRGRFTISRDNAKNLLFLQMNDLKSEDTAMYYCARRPLGHNTFDSWGQGTLVTVSS VL: DIVMTQSPSSLAVSPGEKVTMTCKSSQSLYYSGVKENLLAWYQQKPGQSPKLLIYYASIRFTGVPDRFTGSGSGTDYTLTITSVQAEDMGQYFCQQGINNPLTFGDGTKLEIKR |  |  | IC50 [4]: 0.325 nM; EC50 [5]: 0.195 nM; EC50, MOA-based assay (luciferase reporter under IL2 promoter) [1]: ~77.8 nM; IC50 [6]: 0.741 nM; EC50 [7]: 0.269 nM
